From patent US20200407424A1 (FRAUNHOFER GESELLSCHAFT ZUR F RDERUNG DER ANGEWANDTEN …, published 2020) come the findings set out here.

Like-named read-outs stand apart in the source and are kept apart here. Square brackets hold non-standard residues; d marks the D form. Ends that are not written are not given here. Cit = NC(=O)NCCC[C@H](N)C(=O)O

Experiment in all cases: in vitro binding assay
In assay [1] the target is T1, recombinant MHC class II protein of the HLA DRB1 0101 genotype (human).
T1 construct: construct not described

The target of assay [2] is T2, recombinant MHC class II protein of the HLA DRB1 0404 genotype (human).
T2 construct: construct not described

The target in assay [3] is T1, recombinant MHC class II protein of the …. The source holds these as a separate data set.
The target in assay [4] is T2, recombinant MHC class II protein of the …. The source holds these as a separate data set.
Assay [5] has as its target T3, recombinant MHC class II protein of the HLA DRB1 0405 genotype (human).
T3 construct: construct not described

In assay [6] the target is T4, recombinant MHC class II protein of the HLA DRB1 0408 genotype (human).
T4 construct: construct not described

In assay [7] the target is T5, recombinant MHC class II protein of the HLA DRB1 1001 genotype (human).
T5 construct: construct not described

For assay [8], the target named is T6, recombinant MHC class II protein of the HLA DRB1 0401 genotype (human).
T6 construct: construct not described; also called HLA-DR0401

For assay [9], the target named is T6, recombinant MHC class II protein of the …. The source holds these as a separate data set.

B1: vimentin peptide ref no 32 (peptide)
peptide: ELRRQVDQLTNDKAR
In the case of B1, the binding result in [1] and in assay [2] was “binds” in each case.

B2: vimentin peptide ref no 14 (peptide)
peptide: SAVRLRSSVPGVRLL
Regarding B2, the binding result in assay [2] is given as “binds”.

B3: vimentin peptide ref no 27 (peptide)
peptide: LLAELEQLKGQGKSR
On to B3, for which the binding result is recorded as “binds” in assay [1] and “no binding” in assay [2].

B4: citrullinated a-enolase peptide ref no 297 (peptide)
peptide: [Cit]YMGKGVSKAVEHIN
As for B4, the binding result in [3] was “no binding”; in assay [4], “no binding”; in assay [5], “binds”; in assay [6] it was “no binding”; in assay [7], “no binding”; in [8] it was “binds”.

B5: citrullinated vimentin peptide ref no 156 (peptide)
peptide: XEYQDLLNVKMALDI
modifications: citrulline (Xaa) at 1
For the molecule B5, in [1], the binding result was “binds”.

B6: vimentin peptide ref no 44 (peptide)
peptide: ARLDLERKVESLQEE
For B6, in assay [2], the binding result is given as “binds”.

B7: citrullinated a-enolase peptide ref no 301 (peptide)
peptide: QEFMILPVGAANF[Cit]E
In the case of B7, the binding result in assay [3] is reported as “no binding”; in assay [4], “binds”; in assay [5], “binds”; in assay [6] it was “no binding”; in assay [7] it was “no binding”; in [8], “binds”.

B8: citrullinated vimentin peptide ref no 150 (peptide)
peptide: FAVEAANYQDTIG[Cit]L
As for B8, the binding result in assay [9] is given as “binds”.

B9: corresponding non-citrullinated peptide of a-enolase peptide 324 (peptide)
peptide: KAKFAGRNFRNPLAK
For the molecule B9, the binding result in assay [8] was “no binding”.

B10: vimentin peptide ref no 92 (peptide)
peptide: GQVINETSQHHDDLE
For the molecule B10, the binding result in assay [2] was “binds”.

B11: citrullinated a-enolase peptide ref no 287 (peptide)
peptide: MSILKIHA[Cit]EIFDS[Cit]
As for B11, the binding result in [3] was “binds”; in assay [4] it was “binds”; in assay [5], “binds”; in assay [6] it was “no binding”; in [7] it was “binds”; in assay [8], “binds”.

B12: citrullinated a-enolase peptide ref no 300 (peptide)
peptide: Y[Cit]HIADLAGNSEVIL
Turning to B12, the binding result in assay [3] was “no binding”; in assay [4], “no binding”; in [5], “binds”; in [6] it was “no binding”; in [7], “no binding”; in assay [8], “binds”.

B13: citrullinated vimentin peptide ref no 99 (peptide)
peptide: VTTST[Cit]TYSLGSAL[Cit]
With B13, the binding result in assay [1] and in [9] was “binds” in each case.

B14: vimentin peptide ref no 42 (peptide)
peptide: FRQDVDNASLARLDL
As to B14, the binding result in assay [1] is reported as “binds”; in assay [9], “binds”; in assay [2], “no binding”.

B15: vimentin peptide ref no 16 (peptide)
peptide: GVRLLQDSVDFSLAD
Turning to B15, the binding result in assay [1] is listed as “no binding”; in assay [9], “binds”.

B16: citrullinated a-enolase peptide ref no 305 (peptide)
peptide: VIGMDVAASEFF[Cit]SG
Regarding B16, the binding result in assay [3] is listed as “no binding”; in assay [4], “no binding”; in [5], “binds”; in assay [6] it was “no binding”; in assay [7], “no binding”; in assay [8], “binds”.

B17: corresponding non-citrullinated peptide of a-enolase peptide 292 (peptide)
peptide: FRAAVPSGASTGIYE
For the molecule B17, in [8], the binding result is given as “no binding”.

B18: vimentin peptide ref no 20 (peptide)
peptide: FKNTRTNEKVELQEL
As for B18, the binding result in assay [9] is “binds”.

B19: a-enolase peptide ref no 49 (peptide)
peptide: VIGMDVAASEFFRSG
For B19, the binding result in assay [3] is “no binding”; in assay [4], “binds”; in assay [5], “binds”; in assay [6], “binds”; in assay [7], “no binding”.

B20: citrullinated vimentin peptide ref no 159 (peptide)
peptide: XKLLEGEESXISLPL
modifications: citrulline (Xaa) at 1, 10
For the molecule B20, the binding result is recorded as “binds” in assay [9] and “no binding” in [2].

B21: citrullinated vimentin peptide ref no 132 (peptide)
peptide: F[Cit]QDVDNASLA[Cit]LDL
On to B21, for which the binding result in assay [1] is reported as “binds”.

B22: vimentin peptide ref no 71 (peptide)
peptide: FAVEAANYQDTIGRL
On to B22, for which the binding result in [9] is listed as “binds”.

B23: citrullinated a-enolase peptide ref no 289 (peptide)
peptide: IFDS[Cit]GNPTVEVDLF
In the case of B23, the binding result in [3] is “no binding”; in assay [4], “no binding”; in assay [5], “binds”; in [6] it was “no binding”; in [7] it was “no binding”; in assay [8], “binds”.

B24: citrullinated vimentin peptide ref no 95 (peptide)
peptide: Y[Cit][Cit]MFGGPGTAS[Cit]PS
For B24, the binding result in assay [1] and in assay [9] was “binds” throughout.

B25: citrullinated vimentin peptide ref no 145 (peptide)
peptide: STEY[Cit][Cit]QVQSLTCEV
In the case of B25, the binding result in [9] is given as “binds”.

B26: citrullinated vimentin peptide ref no 93 (peptide)
peptide: MST[Cit]SVSSSSY[Cit][Cit]MF
For B26, the values for the binding result in assay [1], in assay [9] and in assay [2] were “no binding”, “binds” and “binds”, respectively.

B27: vimentin peptide ref no 79 (peptide)
peptide: MALDIEIATYRKLLE
Consider B27, for which the binding result in [1] was “binds”; in [9], “no binding”; in [2], “binds”.

B28: citrullinated a-enolase peptide ref no 313 (peptide)
peptide: K[Cit]IAKAVNEKSCNCL
modifications: cysteine pairing not given here
As for B28, the binding result in assay [3] was “binds”; in [4] it was “binds”; in [5], “binds”; in assay [6] it was “no binding”; in [7] it was “no binding”; in [8], “binds”.

B29: vimentin peptide ref no 59 (peptide)
peptide: YKSKFADLSEAANRN
With B29, in [9], the binding result is listed as “binds”.

B30: a-enolase peptide ref no 34 (peptide)
peptide: QEFMILPVGAANFRE
Turning to B30, the binding result in assay [3] is listed as “binds”; in assay [4] it was “binds”; in [5] it was “binds”; in [6], “no binding”; in assay [7] it was “no binding”.

B31: vimentin peptide ref no 13 (peptide)
peptide: YATRSSAVRLRSSVP
With B31, the figures for the binding result in assay [1] and in [9] were “binds” and “no binding”, respectively.

B32: corresponding non-citrullinated peptide of a-enolase peptide 302 (peptide)
peptide: LPVGAANFREAMRIG
In the case of B32, the binding result in assay [8] is given as “no binding”.

B33: vimentin peptide ref no 55 (peptide)
peptide: DVRQQYESVAAKNLQ
As for B33, the binding result in [1] and in [9] was “binds” throughout.

B34: citrullinated a-enolase peptide ref no 302 (peptide)
peptide: LPVGAANF[Cit]EAM[Cit]IG
Regarding B34, the binding result is “no binding” in assay [3]; “binds” in assay [4]; “binds” in [5]; “no binding” in assay [6]; “no binding” in assay [7]; “binds” in assay [8].

B35: corresponding non-citrullinated peptide of a-enolase peptide 300 (peptide)
peptide: YRHIADLAGNSEVIL
Regarding B35, the binding result in assay [8] is “no binding”.

B36: citrullinated a-enolase peptide ref no 292 (peptide)
peptide: F[Cit]AAVPSGASTGIYE
Consider B36, for which the binding result in assay [3] is reported as “binds”; in assay [4], “binds”; in [5], “binds”; in assay [6], “no binding”; in [7] it was “no binding”; in [8] it was “binds”.
